{"source": "the RNAGym collection of RNA variant scans (doi:10.7554/elife.80360)", "parents": {"B1": {"name": "HDV Ribozyme (parent)", "chain": "GGCCGGCAUGGUCCCAGCCUCCUCGCUGGCGCCGGCUGGGCAACAUUCCGAGGGGACCGUCCCCUCGGUAAUGGCGAAUGGGACCCA"}}}
{"variants_of": "B1", "experiment": "self-cleavage, relative activity (ratio to wild type); higher = more cleavage; co-transcriptional"}
{"variant": "A8G G55C", "self-cleavage": 0.982}
{"variant": "G53U G55C", "self-cleavage": 1.01}
{"variant": "A42C G76A", "self-cleavage": 0.113}
{"variant": "C18A G53A", "self-cleavage": 0.0652}
{"variant": "C30U A45U", "self-cleavage": 0.32}
{"variant": "G28A G81C", "self-cleavage": 0.0674}
{"variant": "C21A C24U", "self-cleavage": 0.0739}
{"variant": "G25C A56U", "self-cleavage": 0.178}
{"variant": "G35U U60C", "self-cleavage": 0.317}
{"variant": "G17U G74C", "self-cleavage": 0.0415}
{"variant": "C14U G38A", "self-cleavage": 0.0652}
{"variant": "C48G C58A", "self-cleavage": 1.14}
{"variant": "G55U C57A", "self-cleavage": 1.12}
{"variant": "C21G C49G", "self-cleavage": 0}
{"variant": "U23A C33G", "self-cleavage": 0.35}
{"variant": "C13A C75A", "self-cleavage": 0.0573}
{"variant": "G10U A51U", "self-cleavage": 0.767}
{"variant": "A16C U20A", "self-cleavage": 0}
{"variant": "C57A A70C", "self-cleavage": 0.773}
{"variant": "G6U A71C", "self-cleavage": 0.123}
{"variant": "C21A U65G", "self-cleavage": 0.0665}
{"variant": "U23C U46A", "self-cleavage": 0.538}
{"variant": "C7U A70U", "self-cleavage": 0.748}
{"variant": "A43U C61G", "self-cleavage": 0.528}
{"variant": "G10C G55U", "self-cleavage": 0.831}
{"variant": "G38C C61U", "self-cleavage": 0.136}
{"variant": "C19U G53A", "self-cleavage": 0.229}
{"variant": "G29A C48U", "self-cleavage": 0.0656}
{"variant": "C66A G76C", "self-cleavage": 0.976}
{"variant": "A56G G76A", "self-cleavage": 0.96}
{"variant": "C57G A78U", "self-cleavage": 0.441}
{"variant": "U12A G53A", "self-cleavage": 0.403}
{"variant": "A42U U65C", "self-cleavage": 0.657}
{"variant": "C3A G5U", "self-cleavage": 0.00831}
{"variant": "A16C C85A", "self-cleavage": 0.875}
{"variant": "A8G G74C", "self-cleavage": 0.0639}
{"variant": "A8C C85A", "self-cleavage": 0.831}
{"variant": "C32A A71G", "self-cleavage": 0.128}
{"variant": "C36A G81C", "self-cleavage": 0.102}
{"variant": "A8C U79C", "self-cleavage": 0.181}
{"variant": "C14G", "self-cleavage": 0.724}
{"variant": "C18A G50U", "self-cleavage": 0.197}
{"variant": "G1A A70C", "self-cleavage": 0.192}
{"variant": "C48G A56G", "self-cleavage": 1.03}
{"variant": "C32U C62U", "self-cleavage": 1.13}
{"variant": "U9C A16U", "self-cleavage": 1.08}
{"variant": "G11C C33G", "self-cleavage": 0.0396}
{"variant": "A16C G74U", "self-cleavage": 0.415}
{"variant": "G50C C64U", "self-cleavage": 0.728}
{"variant": "U20G C61G", "self-cleavage": 0.0536}
{"variant": "G1U G59C", "self-cleavage": 0.277}
{"variant": "G28C G53U", "self-cleavage": 0.123}
{"variant": "C61U A70G", "self-cleavage": 1.01}
{"variant": "G17A U65C", "self-cleavage": 0.671}
{"variant": "C36A C44G", "self-cleavage": 0.125}
{"variant": "G38A A87G", "self-cleavage": 0.219}
{"variant": "A8C C14U", "self-cleavage": 0.831}
{"variant": "U23G G29C", "self-cleavage": 0.196}
{"variant": "A8U C15G", "self-cleavage": 0.277}
{"variant": "C33U C61U", "self-cleavage": 0.918}
{"variant": "G17U C32U", "self-cleavage": 0.125}
{"variant": "G38C U69A", "self-cleavage": 0.095}
{"variant": "C14A C62G", "self-cleavage": 0.582}
{"variant": "C4A G54C", "self-cleavage": 0.284}
{"variant": "A8C C75G", "self-cleavage": 0.277}
{"variant": "C18G C84A", "self-cleavage": 0.095}
{"variant": "U65C C85A", "self-cleavage": 0.991}
{"variant": "C13A G40A", "self-cleavage": 0.233}
{"variant": "G6U G38A", "self-cleavage": 0.0396}
{"variant": "G5C G11U", "self-cleavage": 0.115}
{"variant": "C32G A83C", "self-cleavage": 0.0346}
{"variant": "G35A A71C", "self-cleavage": 0.125}
{"variant": "C22A A51U", "self-cleavage": 0.332}
{"variant": "C14G G40C", "self-cleavage": 0}
{"variant": "C15U A42C", "self-cleavage": 0.161}
{"variant": "C4A G39C", "self-cleavage": 0}
{"variant": "C26A U69G", "self-cleavage": 1.15}
{"variant": "U27G A56U", "self-cleavage": 0.692}
{"variant": "U65C A78U", "self-cleavage": 0.312}
{"variant": "G2C C36U", "self-cleavage": 0.0799}
{"variant": "G53A U69C", "self-cleavage": 1.11}
{"variant": "C36U G54U", "self-cleavage": 0.796}
{"variant": "G25U G40A", "self-cleavage": 0.111}
